The text below walks through data of US9127040B2, “Regulation of sodium channels by PLUNC proteins” (The University of North Carolina at Chapel Hill, priority 2011, dated 2015).

The experiment has as its target T1, ENaC (Homo sapiens, UniProt P37088+P51168+P51170).
T1 construct: measured the transepithelial voltage under thin film conditions in human bronchial epithelial cultures; endogenous in cells; host or cells: primary human bronchial epithelial cultures (normal or CF donors)
T1 sequence (P37088 1-669): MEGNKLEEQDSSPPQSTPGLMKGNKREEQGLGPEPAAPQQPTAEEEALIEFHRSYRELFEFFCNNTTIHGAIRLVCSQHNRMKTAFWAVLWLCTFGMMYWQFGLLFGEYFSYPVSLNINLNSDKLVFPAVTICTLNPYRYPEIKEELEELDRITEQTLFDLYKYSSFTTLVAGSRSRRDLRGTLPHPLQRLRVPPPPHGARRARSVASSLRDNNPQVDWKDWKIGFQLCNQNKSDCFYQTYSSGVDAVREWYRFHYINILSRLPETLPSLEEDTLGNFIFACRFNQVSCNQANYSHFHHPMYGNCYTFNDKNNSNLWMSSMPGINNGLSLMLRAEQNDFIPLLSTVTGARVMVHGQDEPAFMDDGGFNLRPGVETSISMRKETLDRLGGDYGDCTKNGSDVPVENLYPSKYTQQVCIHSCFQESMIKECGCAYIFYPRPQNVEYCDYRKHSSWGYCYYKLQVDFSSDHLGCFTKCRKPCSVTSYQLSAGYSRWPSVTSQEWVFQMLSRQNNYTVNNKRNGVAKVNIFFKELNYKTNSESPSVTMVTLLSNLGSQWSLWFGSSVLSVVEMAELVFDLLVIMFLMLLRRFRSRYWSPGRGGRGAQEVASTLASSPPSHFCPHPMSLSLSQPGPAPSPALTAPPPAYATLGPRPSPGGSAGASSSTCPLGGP
T1 sequence (P51168 1-640): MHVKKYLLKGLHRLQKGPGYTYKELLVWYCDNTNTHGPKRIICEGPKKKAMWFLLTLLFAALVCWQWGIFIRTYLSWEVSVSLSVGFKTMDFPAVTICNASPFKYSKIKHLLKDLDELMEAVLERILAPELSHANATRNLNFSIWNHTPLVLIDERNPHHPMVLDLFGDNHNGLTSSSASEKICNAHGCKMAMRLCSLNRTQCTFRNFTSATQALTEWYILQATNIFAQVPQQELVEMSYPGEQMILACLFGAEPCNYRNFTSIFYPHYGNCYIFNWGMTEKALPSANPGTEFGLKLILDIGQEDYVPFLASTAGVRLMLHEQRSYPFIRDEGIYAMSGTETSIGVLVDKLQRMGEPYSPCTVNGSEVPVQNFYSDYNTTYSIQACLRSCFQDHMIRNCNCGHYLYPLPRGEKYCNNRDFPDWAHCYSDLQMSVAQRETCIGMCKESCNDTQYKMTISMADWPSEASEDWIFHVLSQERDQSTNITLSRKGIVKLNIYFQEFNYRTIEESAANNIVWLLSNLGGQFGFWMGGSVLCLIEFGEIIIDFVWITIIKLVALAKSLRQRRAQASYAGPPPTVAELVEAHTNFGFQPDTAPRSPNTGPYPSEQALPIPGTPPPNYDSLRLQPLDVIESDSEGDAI
T1 sequence (P51170 1-649): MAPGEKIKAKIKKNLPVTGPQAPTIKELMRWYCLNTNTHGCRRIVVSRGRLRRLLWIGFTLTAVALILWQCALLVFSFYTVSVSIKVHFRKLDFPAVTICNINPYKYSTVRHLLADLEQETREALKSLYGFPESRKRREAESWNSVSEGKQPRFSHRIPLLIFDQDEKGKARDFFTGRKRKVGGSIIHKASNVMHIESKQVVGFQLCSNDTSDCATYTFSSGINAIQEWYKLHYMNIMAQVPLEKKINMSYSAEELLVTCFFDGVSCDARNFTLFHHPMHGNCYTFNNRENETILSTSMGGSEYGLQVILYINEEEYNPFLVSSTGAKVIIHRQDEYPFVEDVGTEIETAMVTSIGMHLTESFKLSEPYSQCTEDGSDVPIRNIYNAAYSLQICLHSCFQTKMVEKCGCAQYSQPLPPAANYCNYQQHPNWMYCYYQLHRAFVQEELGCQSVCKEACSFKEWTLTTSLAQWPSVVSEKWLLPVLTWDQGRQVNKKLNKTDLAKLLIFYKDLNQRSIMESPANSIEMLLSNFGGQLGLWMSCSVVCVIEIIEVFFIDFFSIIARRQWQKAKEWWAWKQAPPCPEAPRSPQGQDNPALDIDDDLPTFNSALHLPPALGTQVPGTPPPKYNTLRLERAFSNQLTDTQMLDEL
Briefly: Transepithelial electrical resistance in human bronchial epithelial cultures. It counts as cell-based. The conditions noted are these: 50 ng/ml SPLUNC1 30 min or amiloride 10 min; effects not additive. The text has this:
A single-barreled potential difference-sensing electrode was placed in the airway surface liquid by micromanipulator and used in conjunction with a macroelectrode in the serosal solution to measure transepithelial voltage using a voltmeter (World Precision Instruments). […] Transepithelial resistance was routinely measured using the EVOM system (WPI) as previously described ([…] et al., J. Gen. Physiol. 127:591 (2006)).

B1: SPLUNC1: human SPLUNC1 (SEQ ID NO:1), 256 amino acid secreted PLUNC family protein; rSPLUNC1 is the purified V5/6His-tagged recombinant form (protein, listed as Homo sapiens)
chain: MFQTGGLIVFYGLLAQTMAQFGGLPVPLDQTLPLNVNPALPLSPTGLAGSLTNALSNGLLSGGLLGILENLPLLDILKPGGGTSGGLLGGLLGKVTSVIPGLNNIIDIKVTDPQLLELGLVQSPDGHRLYVTIPLGIKLQVNTPLVGASLLRLAVKLDITAEILAVRDKQERIHLVLGDCTHSPGSLQISLLDGLGPLPIQGLLDSLTGILNKVLPELVQGNVCPLVNEVLRGLDITLVHDIVNMLIHGLQFVIKV
modifications: V5/6His tag in recombinant form
notes: rSPLUNC1 is the purified V5/6His-tagged recombinant form
In the case of B1, the “increase of transepithelial electrical resistance” value is around 33%.
